The text below walks through data of article doi:10.1101/2021.03.04.434028 (bioRxiv, 2021).

B5: HigA antitoxin of the His6-HigBHigA complex (natural protein, Proteus vulgaris (plasmid Rts1), UniProt Q7A224 1-104, looked up)
chain: MRQFKVSHPGEMIARDLEDMGVSGRRFAHNIGVTPATVSRLLAGKTALTPSLSIRIAAALGSTPEFWLRLQSNYDLRQLENQIDTSGIVLYGESNEQQQNAQEH

The subject of data set [1] is HigB (of wild-type HigB2HigA2 complex);HigA (of wild-type HigB2HigA2 complex) (Proteus vulgaris (plasmid Rts1);Proteus vulgaris (plasmid Rts1)). In words: EMSA. The following applies: binding buffer pH not stated ([…].
Data set [2] addresses T1, HigA antitoxin of the complexes analysed by size exclusion chromatography (Proteus vulgaris (plasmid Rts1), UniProt Q7A224 1-104).
T1 sequence (looked up): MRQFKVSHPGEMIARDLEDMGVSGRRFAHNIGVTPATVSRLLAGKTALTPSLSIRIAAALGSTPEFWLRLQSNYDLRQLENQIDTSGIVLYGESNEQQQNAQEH
In words: SEC. Background: Size exclusion chromatography separates by hydrodynamic size, large species first.

Data set [3] has as its target B5. In words: crystal structure.
Data set [4] concerns the molecule itself. In words: crystal structure.
Data set [5] concerns the molecule itself. In words: crystal structure. This is another data set of the same source.

Like-named read-outs stand apart in the source and are kept apart here.

O1-O2(scrambled) (O1 only) came in with a Kd in data set [1] of 360 nM.
Still for that read-out and setting: next, O1(scrambled)-O2 (O2 only): 240 nM.

B1: HigB(L5ext), HigB with loop 5 extended by NGNG (natural protein)
chain: MIKSFKHKGLKLLFEKGVTSGVPAQDVDRINDRLQAIDTATEIGELNRQIYKLHPLKGDREGYWSITVRANWRITFQFINGDNGNGAYILNYEDYH
As to B1, in data set [2], the binding result is on record as “binds”.

B2: HigB toxin of the His6-HigBHigA complex (natural protein)
chain: MIKSFKHKGLKLLFEKGVTSGVPAQDVDRINDRLQAIDTATEIGELNRQIYKLHPLKGDREGYWSITVRANWRITFQFINGDAYILNYEDYH
Regarding B2, the binding result in data set [3] is on record as “binds”.

B3: Wild-type HigB toxin of the HigB2HigA2 complex analysed by size exclusion chromatography (natural protein)
chain: MIKSFKHKGLKLLFEKGVTSGVPAQDVDRINDRLQAIDTATEIGELNRQIYKLHPLKGDREGYWSITVRANWRITFQFINGDAYILNYEDYH
On to B3, for which, in data set [2], the binding result is listed as “binds”.

B4: HigA antitoxin with C-terminal His6 tag of the HigBHigA-His6 complex (selenomethionine-derivatized) (natural protein, Proteus vulgaris (plasmid Rts1), UniProt Q7A224 1-104, looked up)
chain: MRQFKVSHPGEMIARDLEDMGVSGRRFAHNIGVTPATVSRLLAGKTALTPSLSIRIAAALGSTPEFWLRLQSNYDLRQLENQIDTSGIVLYGESNEQQQNAQEH
modifications: selenomethionine-derivatized
Turning to B4, the “stoichiometry N” value in “crystal structure [4]” turned out to be 2.
For B5, in the data set “crystal structure [5]”, the “stoichiometry N” value is 2.

As a reminder, the Kd is the constant that tells how readily two partners part at equilibrium. Lower therefore signals a tighter complex. As usually defined, the stoichiometry N is the number of molecules, sites or subunits per partner or assembly.
